From PMC5027511

Molecular target: E. coli RNAP core with βG1249D (α2, His6-tagged βG1249D, β’, ω) (E. coli) (UniProt P0A7Z4)
Assay: cross-linking; photo-crosslinking from BpA at σ 581; σD581BpA incubated with or without AsiA 10 min at 37°C, then with core 10 min at 37°C; UV 30 min at room temperature; SDS-PAGE with Coomassie stain; crosslinked band digested with trypsin and read by MALDI-TOF; the species was seen only with AsiA present

Q: “AsiA/σD581BpA complex (from UniProt P00579 1-613; P32267 1-90)” was tested. Which fold less of the σD581BpA-β’ crosslinked product than with wt core did it give?
A: 4 fold
